{"source": "patent US20220213196A1", "about": "(published 2022)", "target": "T1, MAGEA3 peptide on HLA-A*01:01 (human)", "T1 peptide": "EVDPIGHLY", "experiment": "multimer staining"}
{"binder": " (TCR, V domains shown) Valpha: KQEVTQIPAALSVPEGENLVLNCSFTDSAIYNLQWFRQDPGKGLTSLLLIQSSQREQTSGRLNASLDKSSGRSTLYIAASQPGDSATYLCAVDNYGQNFVFGPGTRLSVLP Vbeta: RPQVTQNPRYLITVTGKKLTVTCSQNMNHEYMSWYRQDPGLGLRQIYYSMNVEVTDKGDVPEGYKVSRKEKRNFPLILESPSPNQTSLYFCASSTTGSSPLHFGNGTRLTVT", "values": [{"measurement": "binding result", "result": "recognises"}]}
